Here are results for five molecules from patent publication US20240158497A1 (published 2024).

The target in assay [1] is T1, human LEPR extracellular domain expressed with a C-terminal myc-myc-hexahistidine tag (human, UniProt P48357 22-839).
T1 construct: Monomeric reagent; the whole entry is the construct with its tag; also called hLEPR-MMH; hLEPR.mmh
Put plainly: SPR Biacore 4000, bsAb captured by anti-human Fc, 37 C. Here is the method: (§1) Equilibrium dissociation constants (KD values) for LEPR and GP130 binding to purified anti-LEPR/GP130 bispecific antibodies were determined using a real-time surface plasmon resonance biosensor using a Biacore 4000 instrument. All binding studies were performed in 10 mM HEPES, 150 mM NaCl, 3 mM EDTA, and 0.05% v/v Surfactant Tween-20, pH 7.4 (HBS-ET) running buffer at 25° C. and 37° C. The Biacore sensor surface was first derivatized by amine coupling with a monoclonal mouse anti-human Fc antibody (GE, #BR-1008-39) to capture anti-LEPR/GP130 bispecific antibodies. […] Different concentrations of LEPR or GP130 reagents were first prepared in HBS-ET running buffer (100 nM-3.7 nM; 3-fold serial dilution) and were injected over anti-human Fc captured anti-LEPR/GP130 bispecific antibody surface for 4 minutes at a flow rate of 30 μL/minute, while the dissociation of bispecific antibody bound LEPR or GP130 reagent was monitored for 10 minutes in HBS-ET running buffer. Kinetic association (kₐ) and dissociation (kd) rate constants were determined by fitting the real-time binding sensorgrams to a 1:1 binding model with mass transport limitation using Scrubber 2.0c curve-fitting software. Binding dissociation equilibrium constants (KD) and dissociative half-lives (t ½) were calculated from the kinetic rate constants as: […]
For orientation: Surface plasmon resonance follows binding to a sensor surface in real time, without labels.

In assay [2] the target is T2, Macaca Fascicularis LEPR extracellular domain expressed with a C-terminal myc-myc-hexahistidine tag (Macaca fascicularis, UniProt Q9MYL0 22-837 (rhesus entry)).
T2 construct: Monomeric reagent; the whole entry is the construct with its tag; also called mfLEPR-MMH
T2 sequence (Q9MYL0 other isoform, or with tags, fused parts or gaps): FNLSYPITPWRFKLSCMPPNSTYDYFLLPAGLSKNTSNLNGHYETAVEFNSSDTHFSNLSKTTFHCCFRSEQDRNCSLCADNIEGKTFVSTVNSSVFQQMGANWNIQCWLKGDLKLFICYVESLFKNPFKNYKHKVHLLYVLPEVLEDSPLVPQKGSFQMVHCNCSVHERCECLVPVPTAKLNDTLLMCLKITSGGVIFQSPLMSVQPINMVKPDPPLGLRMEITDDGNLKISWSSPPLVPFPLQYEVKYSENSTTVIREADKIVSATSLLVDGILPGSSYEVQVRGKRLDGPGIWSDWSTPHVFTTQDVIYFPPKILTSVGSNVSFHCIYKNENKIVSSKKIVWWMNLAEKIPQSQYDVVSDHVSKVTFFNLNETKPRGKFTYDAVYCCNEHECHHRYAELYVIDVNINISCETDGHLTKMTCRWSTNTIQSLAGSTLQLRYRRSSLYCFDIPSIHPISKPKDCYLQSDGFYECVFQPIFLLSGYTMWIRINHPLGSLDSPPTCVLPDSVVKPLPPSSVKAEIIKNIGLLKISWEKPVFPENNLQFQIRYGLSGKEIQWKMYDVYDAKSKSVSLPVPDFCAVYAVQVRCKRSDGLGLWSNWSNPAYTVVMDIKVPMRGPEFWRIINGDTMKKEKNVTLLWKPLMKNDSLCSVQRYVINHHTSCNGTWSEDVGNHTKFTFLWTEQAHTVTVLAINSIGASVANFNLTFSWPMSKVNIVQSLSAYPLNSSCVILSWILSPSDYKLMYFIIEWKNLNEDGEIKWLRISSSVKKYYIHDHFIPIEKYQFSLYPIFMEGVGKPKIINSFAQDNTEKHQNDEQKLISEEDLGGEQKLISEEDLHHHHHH
Described as above. Here is the method: as §1

The target in assay [3] is T1, human LEPR extracellular domain …. Put plainly: SPR Biacore 4000, bsAb captured by anti-human Fc, 25 C. Here is the method: as §1
Assay [4] has as its target T2, Macaca Fascicularis LEPR extracellular …. The assay is described as above. Here is the method: as §1

T1 sequence (P48357 other isoform, or with tags, fused parts or gaps): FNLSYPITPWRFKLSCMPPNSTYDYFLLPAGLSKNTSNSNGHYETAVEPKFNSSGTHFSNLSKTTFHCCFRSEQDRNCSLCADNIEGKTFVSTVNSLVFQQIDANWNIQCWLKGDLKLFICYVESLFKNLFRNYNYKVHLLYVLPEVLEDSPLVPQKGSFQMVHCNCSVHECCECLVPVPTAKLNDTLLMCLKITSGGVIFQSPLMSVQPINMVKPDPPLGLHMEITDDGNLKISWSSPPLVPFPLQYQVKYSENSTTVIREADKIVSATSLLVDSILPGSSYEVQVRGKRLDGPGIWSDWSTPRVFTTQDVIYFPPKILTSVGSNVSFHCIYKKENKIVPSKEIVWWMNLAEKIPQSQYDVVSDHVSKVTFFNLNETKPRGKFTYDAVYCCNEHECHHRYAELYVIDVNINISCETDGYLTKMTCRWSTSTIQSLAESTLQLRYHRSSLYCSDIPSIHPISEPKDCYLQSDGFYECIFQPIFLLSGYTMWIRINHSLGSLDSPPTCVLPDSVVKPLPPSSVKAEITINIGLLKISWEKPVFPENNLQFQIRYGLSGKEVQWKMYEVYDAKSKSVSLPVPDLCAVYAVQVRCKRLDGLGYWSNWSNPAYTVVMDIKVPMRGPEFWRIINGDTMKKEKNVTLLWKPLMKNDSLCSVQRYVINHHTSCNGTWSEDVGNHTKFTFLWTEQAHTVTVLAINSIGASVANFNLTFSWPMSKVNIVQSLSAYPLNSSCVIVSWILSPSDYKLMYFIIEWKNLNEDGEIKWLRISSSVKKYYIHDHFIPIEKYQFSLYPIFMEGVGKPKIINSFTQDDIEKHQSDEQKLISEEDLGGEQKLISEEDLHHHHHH

B1: bsAb19149D (bispecific antibody, V domains shown)
VH 1: QVQLVESGGGVVQPGRSLRLSCTASGFTFSSYAMYWVRQAPGKGLEWVSVIYYDGSYKYYADSVKGRFTISRDNSKNTLYLQMDSLRAEDTAVYYCASYNWNYWYFDFWGRGTLVTVSS
VH 2: QVQLVESGGGVVQPGRSLRLACAASGFTFRSYGMHWVRQAPGKGLEWVAVIWYDGSNKYYTDSVKGRFTISRDNSKNTLYLQMNSLRAEDTAMYYCAIDKWATVTTYLFDYWGQGTLVTVSS
VL: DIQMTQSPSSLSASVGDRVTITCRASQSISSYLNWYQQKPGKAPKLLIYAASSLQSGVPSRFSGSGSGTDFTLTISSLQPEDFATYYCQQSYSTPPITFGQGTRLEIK
notes: common light chain
Consider B1, for which, in assay [1], the “100 nM hLEPR-MMH Bound (RU)” value stood at 61 RU, the dissociation constant Kd came to 18.4 nM, the koff came out at 0.000622 s⁻¹ and the kon was found to be 33800 M⁻¹ s⁻¹. The molecule further showed a t½ in assay [1] of 19 min. In addition, in assay [2], the “100 nM mfLEPR-MMH Bound (RU)” value was 154 RU, the Kd was 8.09 nM, the koff amounted to 0.000506 s⁻¹ and the kon amounted to 62500 M⁻¹ s⁻¹. Also, in assay [2], the t½ amounted to 23 min. Besides, in assay [3], the “100 nM hLEPR-MMH Bound (RU)” value amounted to 36 RU, binding was put at a Kd of 7.16 nM, the koff was determined as 0.000194 s⁻¹ and the kon came out at 27100 M⁻¹ s⁻¹. This molecule registered a t½ in assay [3] of 60 min. In addition, in assay [4], the “100 nM mfLEPR-MMH Bound (RU)” value came out at 96 RU, binding was characterised by a dissociation constant (Kd) of 2.65 nM, the off-rate (koff) is 0.000111 s⁻¹ and the on-rate (kon) came to 41900 M⁻¹ s⁻¹. In addition, the t½ in assay [4] is 104 min.

B2: bsAb19150D (bispecific antibody, V domains shown)
VH 1: QVQLVESGGGVVQPGRSLRLSCTASGFTFSSYAMYWVRQAPGKGLEWVSVIYYDGSYKYYADSVKGRFTISRDNSKNTLYLQMDSLRAEDTAVYYCASYNWNYWYFDFWGRGTLVTVSS
VH 2: EVQLVESGGGLVQSGGSLRLSCAASGFTFSRYEMNWVRQAPGKGLEWVAYISNTGTTRDYSDSVKGRFTISRDNAKNSLYLQMSSLRVEDTAVYYCVREKFSGTSDWFDPWGQGTLVTVSS
VL: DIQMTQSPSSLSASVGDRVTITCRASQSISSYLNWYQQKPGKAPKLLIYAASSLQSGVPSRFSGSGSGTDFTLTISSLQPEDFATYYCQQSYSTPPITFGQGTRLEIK
notes: common light chain
Take B2: in assay [1], the “100 nM hLEPR-MMH Bound (RU)” value came out at 63 RU, binding was characterised by a dissociation constant (Kd) of 19.5 nM, the koff stood at 0.000691 s⁻¹ and the on-rate (kon) came out at 35500 M⁻¹ s⁻¹. For the same molecule, the t½ in assay [1] is 17 min. Further, in assay [2], the “100 nM mfLEPR-MMH Bound (RU)” value is 158 RU, binding was characterised by a dissociation constant (Kd) of 5.25 nM, the koff turned out to be 0.000519 s⁻¹ and the kon came to 98900 M⁻¹ s⁻¹. Besides, the t½ in assay [2] worked out at 22 min. Also, in assay [3], the “100 nM hLEPR-MMH Bound (RU)” value is 41 RU, binding was put at a Kd of 7.35 nM, the koff amounted to 0.000176 s⁻¹ and the on-rate (kon) came out at 24000 M⁻¹ s⁻¹. In addition, the t½ in assay [3] was determined as 66 min. In assay [4], the “100 nM mfLEPR-MMH Bound (RU)” value is 102 RU, binding was put at a Kd of 2.79 nM, the off-rate (koff) turned out to be 0.000117 s⁻¹ and the kon was 41800 M⁻¹ s⁻¹. Besides, the t½ in assay [4] stood at 99 min.

B3: bsAb19152D (bispecific antibody, V domains shown)
VH 1: QVQLVESGGGVVQPGRSLRLSCTASGFTFSSYAMYWVRQAPGKGLEWVSVIYYDGSYKYYADSVKGRFTISRDNSKNTLYLQMDSLRAEDTAVYYCASYNWNYWYFDFWGRGTLVTVSS
VH 2: EVQLVQSGAEVKKPGESLKISCKGSGYSFTSYWIDWVRQMPGKGLEWMGIIYPDDSDTRYSPSFQGQVTMSVDKSISTAYLQWSSLKASDTAIYYCARHERGIVEAGTDYYYYYGMDVWGQGTTVTVSS
VL: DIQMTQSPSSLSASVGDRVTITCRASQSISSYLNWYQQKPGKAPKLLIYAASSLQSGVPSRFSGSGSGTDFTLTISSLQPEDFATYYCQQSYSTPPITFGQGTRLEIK
notes: common light chain
For B3, in assay [1], the “100 nM hLEPR-MMH Bound (RU)” value is 74 RU, the Kd was found to be 20.8 nM, the off-rate (koff) came out at 0.000787 s⁻¹ and the kon came out at 37700 M⁻¹ s⁻¹. In assay [1], this molecule had a t½ of 15 min. In addition, in assay [2], the “100 nM mfLEPR-MMH Bound (RU)” value was 169 RU; the affinity, expressed as Kd, was 5.9 nM; the koff turned out to be 0.000589 s⁻¹; the kon worked out at 99900 M⁻¹ s⁻¹. In assay [2], this molecule displayed a t½ of 20 min. In assay [3], the “100 nM hLEPR-MMH Bound (RU)” value was 47 RU; the affinity, expressed as Kd, was 6.75 nM; the koff was found to be 0.000165 s⁻¹; the on-rate (kon) turned out to be 24500 M⁻¹ s⁻¹. In assay [3], the t½ came out at 70 min. Also, in assay [4], the “100 nM mfLEPR-MMH Bound (RU)” value was 113 RU; the affinity, expressed as Kd, was 2.97 nM; the koff worked out at 0.000124 s⁻¹; the kon was found to be 41800 M⁻¹ s⁻¹. Moreover, the t½ in assay [4] stood at 93 min.

B4: bsAb19151D (bispecific antibody, V domains shown)
VH 1: QVQLVESGGGVVQPGRSLRLSCTASGFTFSSYAMYWVRQAPGKGLEWVSVIYYDGSYKYYADSVKGRFTISRDNSKNTLYLQMDSLRAEDTAVYYCASYNWNYWYFDFWGRGTLVTVSS
VH 2: EVQLVESGGGLVQPGGSLRLSCAASGFTFSSYAMNWVRQAPGKGLEWVSAISGSGDSTYYTDSVKGRFTISRDNSKNTLYLQMNTLRAEDTAVYYCAKEEIVMLVGATPGWFDPWGQGTLVTVSS
VL: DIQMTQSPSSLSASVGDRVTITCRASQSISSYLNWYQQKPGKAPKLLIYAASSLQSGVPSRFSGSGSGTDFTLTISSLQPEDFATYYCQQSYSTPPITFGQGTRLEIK
notes: common light chain
Take B4: in assay [1], the “100 nM hLEPR-MMH Bound (RU)” value is 70 RU, binding was characterised by a dissociation constant (Kd) of 18.3 nM, the off-rate constant (koff) came out at 0.00076 s⁻¹ and the association rate constant (kon) was 41400 M⁻¹ s⁻¹. This molecule also had a t½ in assay [1] of 15 min. In addition, in assay [2], the “100 nM mfLEPR-MMH Bound (RU)” value came out at 167 RU, the Kd came out at 5.3 nM, the koff was found to be 0.000554 s⁻¹ and the kon is 105000 M⁻¹ s⁻¹. Besides, in assay [2], the t½ was 21 min. In assay [3], the “100 nM hLEPR-MMH Bound (RU)” value was 46 RU, the Kd is 7.49 nM, the koff was 0.000158 s⁻¹ and the kon turned out to be 21100 M⁻¹ s⁻¹. For the same molecule, the t½ in assay [3] was found to be 73 min. In addition, in assay [4], the “100 nM mfLEPR-MMH Bound (RU)” value turned out to be 109 RU; the affinity, expressed as Kd, was 2.74 nM; the off-rate (koff) was determined as 0.000117 s⁻¹; the kon came to 42500 M⁻¹ s⁻¹. The t½ in assay [4] came out at 99 min.

B5: bsAb19153D (bispecific antibody, V domains shown)
VH 1: QVQLVESGGGVVQPGRSLRLSCTASGFTFSSYAMYWVRQAPGKGLEWVSVIYYDGSYKYYADSVKGRFTISRDNSKNTLYLQMDSLRAEDTAVYYCASYNWNYWYFDFWGRGTLVTVSS
VH 2: QVQLVQSGAEVMKPGASVKVSCRASGYTFSSYDINWVRQAPGQGLEWMGWISTATGNTNYPQKVQGRVTMTTDTSTNTAYMELRSLRSDDTAVYYCTREGNSKGWLDPWGQGTLVTVSS
VL: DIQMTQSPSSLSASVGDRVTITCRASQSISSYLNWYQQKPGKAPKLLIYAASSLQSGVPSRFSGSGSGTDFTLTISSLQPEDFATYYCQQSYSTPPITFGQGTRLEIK
notes: common light chain
Turning to B5, in assay [1], the “100 nM hLEPR-MMH Bound (RU)” value was 65 RU, the dissociation constant Kd is 19.7 nM, the off-rate (koff) was 0.000791 s⁻¹ and the association rate constant (kon) was 40100 M⁻¹ s⁻¹. Also, the t½ in assay [1] worked out at 15 min. In assay [2], the “100 nM mfLEPR-MMH Bound (RU)” value was found to be 158 RU; the affinity, expressed as Kd, was 8.81 nM; the koff came out at 0.00058 s⁻¹; the kon was found to be 65800 M⁻¹ s⁻¹. Besides, the t½ in assay [2] came out at 20 min. In assay [3], the “100 nM hLEPR-MMH Bound (RU)” value is 40 RU, binding was characterised by a dissociation constant (Kd) of 6.46 nM, the koff amounted to 0.000165 s⁻¹ and the kon came to 25500 M⁻¹ s⁻¹. In assay [3], this molecule gave a t½ of 70 min. Further, in assay [4], the “100 nM mfLEPR-MMH Bound (RU)” value was determined as 102 RU; the affinity, expressed as Kd, was 2.96 nM; the dissociation rate constant (koff) came out at 0.000126 s⁻¹; the kon was determined as 42600 M⁻¹ s⁻¹. The t½ in assay [4] stood at 92 min.

A word on the Kd: it is the free concentration of one partner at which half of the binding sites on the other are occupied at equilibrium, for simple one-to-one binding. As a reminder, the koff is a measure of how fast the partners let go of each other. As usually defined, the kon is the second-order rate constant of association. Low values mean slow association, high ones fast association. What is called t½ is the time needed for the level to fall by half in the phase considered.
